Laboratory results from publication PMC10540216, “Activity Guided Azide-methyllysine Photo-trapping for Substrate Profiling of Lysine Demethylases” (Journal of the American Chemical Society, 2023).

Tested on: KDM4A-I71AzF
Test: CASI: photo-crosslinking with HEK293T cell extracts, StrepTactin enrichment and LC-MS/MS proteomics;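 note: lysates from HEK293T cells pretreated with a KDM4 inhibitor to raise proteome methylation, affinity-purified after ±UV, gel-resolved, trypsin-digested, with exclusive unique peptides per protein averaged per condition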
Assay type: binding, human
Conditions: sheet "Final results but with 0.01"

B1: TCPB_HUMAN (protein, UniProt P78371 2-535, looked up)
T-complex protein 1 subunit …: ASLSLAPVNIFKAGADEERAETARLTSFIGAIAIGDLVKSTLGPKGMDKILLSSGRDASLMVTNDGATILKNIGVDNPAAKVLVDMSRVQDDEVGDGTTSVTVLAAELLREAESLIAKKIHPQTIIAGWREATKAAREALLSSAVDHGSDEVKFRQDLMNIAGTTLSSKLLTHHKDHFTKLAVEAVLRLKGSGNLEAIHIIKKLGGSLADSYLDEGFLLDKKIGVNQPKRIENAKILIANTGMDTDKIKIFGSRVRVDSTAKVAEIEHAEKEKMKEKVERILKHGINCFINRQLIYNYPEQLFGAAGVMAIEHADFAGVERLALVTGGEIASTFDHPELVKLGSCKLIEEVMIGEDKLIHFSGVALGEACTIVLRGATQQILDEAERSLHDALCVLAQTVKDSRTVYGGGCSEMLMAHAVTQLANRTPGKEAVAMESYAKALRMLPTIIADNAGYDSADLVAQLRAAHSEGNTTAGLDMREGTIGDMAILGITESFQVKRQVLLSAAEAAEVILRVDNIIKAAPRKRVPDHHPC
Fold change (+UV/-UV): 1

B2: CLPB_HUMAN (protein, UniProt Q9H078 37-707, looked up)
Mitochondrial disaggregase: VTTGSLGEPQWLRVATGGRPGTSPALFSGRGAATGGRQGGRFDTKCLAAATWGRLPGPEETLPGQDSWNGVPSRAGLGMCALAAALVVHCYSKSPSNKDAALLEAARANNMQEVSRLLSEGADVNAKHRLGWTALMVAAINRNNSVVQVLLAAGADPNLGDDFSSVYKTAKEQGIHSLEDGGQDGASRHITNQWTSALEFRRWLGLPAGVLITREDDFNNRLNNRASFKGCTALHYAVLADDYRTVKELLDGGANPLQRNEMGHTPLDYAREGEVMKLLRTSEAKYQEKQRKREAEERRRFPLEQRLKEHIIGQESAIATVGAAIRRKENGWYDEEHPLVFLFLGSSGIGKTELAKQTAKYMHKDAKKGFIRLDMSEFQERHEVAKFIGSPPGYVGHEEGGQLTKKLKQCPNAVVLFDEVDKAHPDVLTIMLQLFDEGRLTDGKGKTIDCKDAIFIMTSNVASDEIAQHALQLRQEALEMSRNRIAENLGDVQISDKITISKNFKENVIRPILKAHFRRDEFLGRINEIVYFLPFCHSELIQLVNKELNFWAKRAKQRHNITLLWDREVADVLVDGYNVHYGARSIKHEVERRVVNQLAAAYEQDLLPGGCTLRITVEDSDKQLLKSPELPSPQAEKRLPKLRLEIIDKDSKTRRLDIRAPLHPEKVCNTI
Fold change (+UV/-UV): 2

B3: HNRPR_HUMAN (protein, UniProt O43390 2-633, looked up)
Heterogeneous nuclear …: ANQVNGNAVQLKEEEEPMDTSSVTHTEHYKTLIEAGLPQKVAERLDEIFQTGLVAYVDLDERAIDALREFNEEGALSVLQQFKESDLSHVQNKSAFLCGVMKTYRQREKQGSKVQESTKGPDEAKIKALLERTGYTLDVTTGQRKYGGPPPDSVYSGVQPGIGTEVFVGKIPRDLYEDELVPLFEKAGPIWDLRLMMDPLSGQNRGYAFITFCGKEAAQEAVKLCDSYEIRPGKHLGVCISVANNRLFVGSIPKNKTKENILEEFSKVTEGLVDVILYHQPDDKKKNRGFCFLEYEDHKSAAQARRRLMSGKVKVWGNVVTVEWADPVEEPDPEVMAKVKVLFVRNLATTVTEEILEKSFSEFGKLERVKKLKDYAFVHFEDRGAAVKAMDEMNGKEIEGEEIEIVLAKPPDKKRKERQAARQASRSTAYEDYYYHPPPRMPPPIRGRGRGGGRGGYGYPPDYYGYEDYYDDYYGYDYHDYRGGYEDPYYGYDDGYAVRGRGGGRGGRGAPPPPRGRGAPPPRGRAGYSQRGAPLGPPRGSRGGRGGPAQQQRGRGSRGSRGNRGGNVGGKRKADGYNQPDSKRRQTNNQQNWGSQPIAQQPLQQGGDYSGNYGYNNDNQEFYQDTYGQQWK
Fold change (+UV/-UV): 2
